Measured values: publication PMC8578495
Like-named read-outs stand apart in the source and are kept apart here.

Q: For Mps1: K86R, which expression_or_secretion (ubiquitination at K86) is on record?
A: Its expression_or_secretion is “increases”.

Q: Which expression_or_secretion (ubiquitination at K86) does the source give for Mps1: RRR (K86R, K827R, K848R) here?
A: Its expression_or_secretion is “increases”.

Q: And the expression_or_secretion (ubiquitination at K827)?
A: The expression_or_secretion was “increases”.

Q: And the expression_or_secretion (ubiquitination at K848)?
A: Its expression_or_secretion is “increases”.

Q: For Mps1: K827R, which expression_or_secretion (ubiquitination at K827) is on record?
A: The expression_or_secretion was “increases”.

Q: Which expression_or_secretion (ubiquitination at K848) does the source give for Mps1: K848R here?
A: The expression_or_secretion was “increases”.
